Measured values from US20260242478A1 (published 2026).
Like-named read-outs stand apart in the source and are kept apart here.

Experiments:
Peptide-87 [1] = molecular target: T1, Peptide-87; test: BLI (Octet), biotinylated peptide on sensor, Fab in solution
T1 peptide: YCAGHAWQYINKCL

Peptide-120 [2] = molecular target: T2, Peptide-120; test: as above
T2 peptide: YCEGHLPEYIEKCL

Peptide-121 = molecular target: T3, Peptide-121; test: as above
T3 peptide: YCEGHAPEYIAKCL

Peptide-126 = molecular target: T4, Peptide-126; test: as above
T4 peptide: YCEGHLPEYREKCL

Peptide-127 = molecular target: T5, Peptide-127; test: as above
T5 peptide: YCEGHLPEYLAKCL

Peptide-132 [3] = molecular target: T6, Peptide-132; test: as above
T6 peptide: YCEGHLPEYRNKCL

Peptide-134 = molecular target: T7, Peptide-134; test: as above
T7 peptide: YCEGHLPEYIQKCL

Peptide-135 [4] = molecular target: T8, Peptide-135; test: as above
T8 peptide: YCEGHLPEYIWKCL

Peptide-84 = molecular target: T9, Peptide-84; test: binding ELISA, biotinylated peptide on neutravidin plate, Fab titrated
T9 peptide: YCAGHSPINIGKCL

Peptide-87 [5] = molecular target: T1, Peptide-87; test: as above
Peptide-92 [6] = molecular target: T10, Peptide-92; test: as above
T10 peptide: SCAAGASYAWPYCL

Peptide-41 = molecular target: T11, Peptide-41; test: as above
T11 peptide: MDWCPRDLWVHCFA

Peptide-79 = molecular target: T12, Peptide-79; test: as above
T12 peptide: ACDTYFAGMINECF

Peptide-92 [7] = molecular target: T10, Peptide-92; test: as above
Peptide-137 = molecular target: T13, Peptide-137; test: as above
T13 peptide: TCSAGATWPWPICL

Peptide-138 = molecular target: T14, Peptide-138; test: as above
T14 peptide: LCAAGASWPWPVCL

Peptide-139 = molecular target: T15, Peptide-139; test: as above
T15 peptide: TCSAGASYPWPLCL

Peptide-140 = molecular target: T16, Peptide-140; test: as above
T16 peptide: TCAAGAAWPWPQCL

Peptide-141 = molecular target: T17, Peptide-141; test: as above
T17 peptide: TCSAGATYTWPKCF

Peptide-142 = molecular target: T18, Peptide-142; test: as above
T18 peptide: TCAAGATWSWPACF

Peptide-143 = molecular target: T19, Peptide-143; test: as above
T19 peptide: TCAAGAAWGWPLCF

Peptide-144 = molecular target: T20, Peptide-144; test: as above
T20 peptide: LCAAGATYPWPLCL

Peptide-145 = molecular target: T21, Peptide-145; test: as above
T21 peptide: TCSAGAAYPWPLCL

Peptide-146 = molecular target: T22, Peptide-146; test: as above
T22 peptide: TCSAGAAYSWPACF

Peptide-147 = molecular target: T23, Peptide-147; test: as above
T23 peptide: LCAAGATYPWPTCL

Peptide-148 = molecular target: T24, Peptide-148; test: as above
T24 peptide: SCSAGAHYPWPQCF

Peptide-149 = molecular target: T25, Peptide-149; test: as above
T25 peptide: TCSAGATYEWPRCL

Peptide-150 = molecular target: T26, Peptide-150; test: as above
T26 peptide: TCSAGAHYPWPICL

Peptide-151 = molecular target: T27, Peptide-151; test: as above
T27 peptide: SCSAGAAYYWPWCL

Peptide-152 = molecular target: T28, Peptide-152; test: as above
T28 peptide: TCSAGATWAWPLCF

Peptide-153 = molecular target: T29, Peptide-153; test: as above
T29 peptide: TCAAGATYLWPTCL

Peptide-154 = molecular target: T30, Peptide-154; test: as above
T30 peptide: TCAAGAHYPWPACL

Peptide-118 = molecular target: T31, Peptide-118; test: as above
T31 peptide: YCEGHRPEYILKCL

Peptide-119 = molecular target: T32, Peptide-119; test: as above
T32 peptide: YCEGHEGIYFWKCL

Peptide-120 [8] = molecular target: T2, Peptide-120; test: as above
Peptide-128 = molecular target: T33, Peptide-128; test: as above
T33 peptide: YCEGHSQEYLWKCL

Peptide-132 [9] = molecular target: T6, Peptide-132; test: as above
Peptide-133 = molecular target: T34, Peptide-133; test: as above
T34 peptide: YCEGHLPEYLEKCV

Peptide-135 [10] = molecular target: T8, Peptide-135; test: as above

B1: anti-CD28 Fab (Fab, V domains shown)
VH: QVQLVQSGAEVKKPGASVKVSCKASGYTFTSYYIHWVRQAPGQGLEWIGSIYPGNVNTNYNEKFKDRATLTVDTSISTAYMELSRLRSDDTAVYFCTRSHYGLDWNFDVWGQGTTVTVSS
VL: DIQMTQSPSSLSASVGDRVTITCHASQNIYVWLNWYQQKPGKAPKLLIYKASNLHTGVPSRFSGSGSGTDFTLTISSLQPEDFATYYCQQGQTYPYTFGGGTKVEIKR
Peptide-87 [1]
  Off rate t½: 42 s
Peptide-120 [2]
  Off rate t½: 30 s
Peptide-121
  Off rate t½: 24 s
Peptide-126
  Off rate t½: 36 s
Peptide-127
  Off rate t½: 60 s
Peptide-132 [3]
  Off rate t½: 48 s
Peptide-134
  Off rate t½: 54 s
Peptide-135 [4]
  Off rate t½: 54 s
Peptide-84
  EC50: 337 nM
Peptide-87 [5]
  EC50: 49 nM
Peptide-92 [6]
  EC50: 54 nM
Peptide-41
  EC50: 490 nM
Peptide-79
  EC50: 97 nM
Peptide-92 [7]
  EC50: 18.9 nM
Peptide-137
  EC50: 2.1 nM
Peptide-138
  EC50: 13.1 nM
Peptide-139
  EC50: 5.3 nM
Peptide-140
  EC50: 2.6 nM
Peptide-141
  EC50: 15.7 nM
Peptide-142
  EC50: 4.5 nM
Peptide-143
  EC50: 5.6 nM
Peptide-144
  EC50: 5.6 nM
Peptide-145
  EC50: 4.4 nM
Peptide-146
  EC50: 24.3 nM
Peptide-147
  EC50: 25.8 nM
Peptide-148
  EC50: 19 nM
Peptide-149
  EC50: 12.8 nM
Peptide-150
  EC50: 10.6 nM
Peptide-151
  EC50: 112 nM
Peptide-152
  EC50: 15.6 nM
Peptide-153
  EC50: 20.5 nM
Peptide-154
  EC50: 4.2 nM
Peptide-118
  EC50: 65.8 nM
Peptide-119
  EC50: 128 nM
Peptide-120 [8]
  EC50: 3.1 nM
Peptide-128
  EC50: 59.4 nM
Peptide-132 [9]
  EC50: 3.2 nM
Peptide-133
  EC50: 32.5 nM
Peptide-135 [10]
  EC50: 2.1 nM
